± gives the uncertainty stated by the source.
test: protein stability index of a GFP-peptide fusion (yeast GPS) (PSI 1-4); higher = more stable; sorted into four equal gates, so the index is relative within each strain; conditions: pdr5∆
Procedure, shortened: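 Plasmids isolated from each sorting gate were PCR-amplified and Illumina-sequenced, and barcodes assigned the reads to strains. The gates, four of equal size, were set by GFP/Cherry fluorescence ratio on mid-log cultures in leucine-free medium. These cultures were yeast carrying a pooled library of tiled 17-residue yeast protein peptides fused downstream of GFP on a plasmid that also expresses Cherry. The protein stability index is the sum of every gate's read frequency times its gate number.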

Going from VLVDEIKSQYYSRISKL [YIL149C/MLP2] to VLVKWTRTIKQNNFHVL [RGR1], the protein stability index falls from 2.46 ± 0.045 to 1.3 ± 0.27.

same assay, conditions: san1∆

TTIGDTTDKNTTDDKSM [BRN1] and TTIKAIFDGNYGESDIH [YMR129W/POM152] are within error of each other in protein stability index: 3.44 ± 0.044 for the first, 3.58 ± 0.2 for the second.

First: TTKILGDKILGNLYSKV [YML103C/NUP188]
Second: TTKMWPTNCPLRQFKTC [BRR2]
The protein stability index of the first is higher: 3.16 ± 0.058 for the first, 2.01 ± 0.082 for the second.

Compared with TTMFENTGWSCSRIIKI [RGR1], TTNLDIDLLTFQYGSRL [RPP1] is lower in protein stability index: 3.37 ± 0.11 for the first, 3.06 ± 0.092 for the second.

First: TTTATPHANPITHAHSL [PGD1]
Second: TTTMLQLFSTFDRLNGN [SSN2]
The protein stability index of the first is lower: 2.88 ± 0.035 for the first, 3.28 ± 0.055 for the second.

Going from TTVITVFLEFSLNFIPI [YML103C/NUP188] to TTVYRYSAAKKIPDTYT [YAR002W/NUP60], the protein stability index falls from 1.83 ± 0.064 to 1.42 ± 0.14.

Compared with TVENPLRNWEELNIIPR [PRP28], TVFFLIRVAETRGGASA [YJL039C/NUP192] is higher in protein stability index: 1.48 ± 0.086 for the first, 2.76 ± 0.13 for the second.

Compared with TVFLPMVGLVDPDKLKP [RPT5], TVHSKSRTRAHAQSKRE [RPL19A] is higher in protein stability index: 2.47 ± 0.058 for the first, 2.96 ± 0.068 for the second.

TVIPEDEEIIQLHFSLL [RPO21] and TVKENESDSKLQCHISG [UBP6] are within error of each other in protein stability index: 2.98 ± 0.057 for the first, 3.05 ± 0.087 for the second.

Going from TVQLTFLIDVLKIYAQI [YCG1] to TVRLVNLFSSTGFKGLL [SRB2], the protein stability index rises from 1.74 ± 0.059 to 2.76 ± 0.06.

TVTNSKFRSSILRKSFD [RPN2] and TYEAIEITDAYCFAKND [YMR129W/POM152] are within error of each other in protein stability index: 2.66 ± 0.094 for the first, 2.7 ± 0.05 for the second.

Compared with TYPAGFMDVITLDATNE [RPS4A], VACLFITISIHGKPTKG [SSN8] is lower in protein stability index: 3.11 ± 0.062 for the first, 1.28 ± 0.16 for the second.

VAEKMNGCSGADVKGVC [RPT6] and VAESFTDEADSSMTEAS [SNF2] are within error of each other in protein stability index: 3.19 ± 0.23 for the first, 3.38 ± 0.053 for the second.

Compared with VAGGKKALAIFVPVPSL [RPS7A], VANVKDLETLTMHTKTY [RPL32] is higher in protein stability index: 1.7 ± 0.088 for the first, 2.98 ± 0.075 for the second.

VASQTVKKVIEINPFLL [PRE2] and VDDAIELALKTLSKTTD [PRE9] are within error of each other in protein stability index: 2.44 ± 0.11 for the first, 2.42 ± 0.074 for the second.

First: VDEEDENGTHNDEVNED [YCG1]
Second: VDENGDPIWQHQSLGPD [RET1]
The protein stability index of the first is higher: 3.55 ± 0.11 for the first, 3.33 ± 0.042 for the second.

Going from VDIVNQWFLQYQNQFVE [YML103C/NUP188] to VDLIEKFLRYNPLEKRD [RPB10], the protein stability index rises from 1.81 ± 0.065 to 3.23 ± 0.071.

First: VDNSPTTESNSRLKALN [YLR335W/NUP2]
Second: VDNVWADVYAKALEGKD [RPP1B]
The protein stability index of the first is lower: 3.11 ± 0.058 for the first, 3.35 ± 0.12 for the second.

Compared with VDPEQEAHNKALNQFKR [RPT4], VDPIQSVKGKVVIDAFR [RPN11] is lower in protein stability index: 3.41 ± 0.11 for the first, 2.1 ± 0.093 for the second.

Going from VDPKRLAMVIIKEFVDD [DSN1] to VDSISLHKIFYKVLKNN [YCG1], the protein stability index falls from 3.31 ± 0.096 to 2.71 ± 0.037.

VDSRATAGNWVASQTVK [PRE2] and VDVNNKFIALCEQQPSQ [SIN4] are within error of each other in protein stability index: 3.13 ± 0.078 for the first, 3.18 ± 0.052 for the second.

Going from VEAGMIALRNGQSSVKH [RPT5] to VEASRRRRSSTNKSKRP [MED1], the protein stability index rises from 2.79 ± 0.11 to 3.22 ± 0.044.

First: VEFINKMENFEFLPLSL [SRB8]
Second: VEIAFLFRAIYLYCLDN [YCG1]
The protein stability index of the first is higher: 3.1 ± 0.12 for the first, 1.21 ± 0.11 for the second.

First: VEIIDQKKVLIDGPKAG [RPL14A]
Second: VELHGKRKLDIGKDTFV [PRP8]
The protein stability index of the first is higher: 2.91 ± 0.076 for the first, 2.47 ± 0.17 for the second.

First: VENDTFIERNFTPQEIE [FAS2]
Second: VENSVLIEKVDDTAANN [YIL149C/MLP2]
The protein stability index of the first is lower: 2.15 ± 0.068 for the first, 2.68 ± 0.14 for the second.

Compared with VENWIIDDKGVLMERKD [ITC1], VENYETSSAFFYQQVHK [SIR4] is lower in protein stability index: 3.09 ± 0.15 for the first, 2.43 ± 0.045 for the second.

Going from VERIQKMIEKIEKMSTI [YIL149C/MLP2] to VEVCLADLQGSEDHSFR [RPS1A], the protein stability index rises from 2.81 ± 0.19 to 3.21 ± 0.17.

VEWNDQVEKLGKKMEAR [RPN9] and VFGISKTSSGSYNYVEN [ITC1] are within error of each other in protein stability index: 3.29 ± 0.12 for the first, 3.17 ± 0.06 for the second.

VFHDPDHSMILPSGVLS [SMC3] and VFSALKNLISRINTLPQ [ECM29] are within error of each other in protein stability index: 2.04 ± 0.13 for the first, 1.76 ± 0.22 for the second.

Going from VFVKKHHELIKVKHDSQ [SSN2] to VFYAELNEFFTRELAEE [RPS3], the protein stability index rises from 1.18 ± 0.095 to 3.26 ± 0.09.

VGACTDEEMTISQKLHD [RRP43] and VGFGESNFTSIIGPNGS [SMC1] are within error of each other in protein stability index: 3.04 ± 0.084 for the first, 3.15 ± 0.047 for the second.

Compared with VGGCKDQIEKLREVVEL [RPT1], VGLKNYDPQRDKRFSGS [RPL1A] is lower in protein stability index: 3.4 ± 0.048 for the first, 3 ± 0.096 for the second.

Compared with VGLVSPSFMLKHHQLFY [RPN1], VGRQDPKKHLSETADET [RPN11] is higher in protein stability index: 1.32 ± 0.16 for the first, 3.51 ± 0.066 for the second.

First: VGVDQLSIELEGGKNQA [YJL039C/NUP192]
Second: VGVIIFILTIATAFLGY [COB]
The protein stability index of the first is higher: 3.06 ± 0.076 for the first, 1.82 ± 0.072 for the second.

Going from VHDKVLEDMVFPTEIVG [RPS7B] to VHDLNKYKSNTNNMEKI [SMC2], the protein stability index rises from 2.56 ± 0.083 to 3.02 ± 0.15.

VHELSKRVHTLLTLIVR [ISW2] and VHNTNSFIISSLDTLEL [NUT1] are within error of each other in protein stability index: 1.96 ± 0.16 for the first, 1.99 ± 0.086 for the second.

First: VHPDYLYGAITEDRYNE [FAS2]
Second: VHPIPDVAFADGGKTLR [YMR129W/POM152]
The protein stability index of the first is lower: 1.14 ± 0.15 for the first, 2.66 ± 0.084 for the second.

Going from VIAKLNHNQFECKGCDN [RPB2] to VIEQCYLKFIPLKRAIW [SRB8], the protein stability index falls from 3 ± 0.05 to 1.4 ± 0.099.

First: VIGGNSLFHIVVDTEET [SMC3]
Second: VILFDSDWNPQADLQAM [ISW2]
The protein stability index of the first is lower: 2.54 ± 0.076 for the first, 2.84 ± 0.11 for the second.

Compared with VILKQILQILDQDELVQ [SWP82], VINKLDRLILDLKLPPM [SNU114] is lower in protein stability index: 2.57 ± 0.063 for the first, 1.06 ± 0.23 for the second.

Compared with VINPQQLLKGLSLSFSK [DSN1], VIPIRRGYWGTNLGQPH [RPS2] is lower in protein stability index: 2.54 ± 0.086 for the first, 1.91 ± 0.18 for the second.

Going from VIQIVTGIFMAMHYSSN [COB] to VIRMVVLTAAGVERLIF [PRE3], the protein stability index rises from 1.33 ± 0.17 to 2.42 ± 0.13.

First: VITIKSRIRVKIEGCIS [RPB7]
Second: VIVLSNISHLLEIASSI [SWI1]
The protein stability index of the first is lower: 1.88 ± 0.081 for the first, 2.07 ± 0.082 for the second.

First: VIVPLSTLSNWSSEFAK [SNF2]
Second: VKEQTEAAKKSEKKAKK [RPL34A]
The protein stability index of the first is lower: 2.52 ± 0.051 for the first, 3.18 ± 0.038 for the second.

First: VKGTNISEKDLVPKRCL [RPO31]
Second: VKKLEIQQHARYDCSFC [RPL43A]
The protein stability index of the first is higher: 3.42 ± 0.082 for the first, 2.96 ± 0.068 for the second.

Compared with VKKVIEINPFLLGTMAG [PRE2], VKPISIEAPQFYRYWSA [SWI3] is higher in protein stability index: 1.38 ± 0.28 for the first, 1.85 ± 0.055 for the second.

Going from VKQVLLSVEIGVLTDIS [NUT1] to VKWQYDPNNPVDFDGLD [SNF12], the protein stability index rises from 1.37 ± 0.18 to 2.25 ± 0.07.

First: VLCNSNISKSRAKPVTN [RRP6]
Second: VLDVDPKYAKQKDKSDT [ISW2]
The protein stability index of the first is lower: 2.09 ± 0.11 for the first, 3.05 ± 0.14 for the second.

First: VLEERERGQKVKNVKNS [ARP9]
Second: VLEQLSGQTPVQSKARY [RPL11A]
The protein stability index of the first is lower: 2.71 ± 0.12 for the first, 2.91 ± 0.077 for the second.

First: VLKCLKSLESQRYVKSV [RPC34]
Second: VLKKKNIQKKQPAKEKG [RRP6]
The protein stability index of the first is lower: 1.99 ± 0.1 for the first, 3.09 ± 0.042 for the second.

Compared with VLKYMLLSKIMLNLIDD [RPN6], VLQYSDWESDLHIHLNQ [YDL116W/NUP84] is higher in protein stability index: 1.2 ± 0.098 for the first, 2.75 ± 0.066 for the second.

From the supplement of paper PMC9732359
